Data from the supplement of paper PMC9112550, “Optimization of the antimicrobial peptide Bac7 by deep mutational scanning” (BMC Biology, 2022).

Tested on: Escherichia coli TOP10
Assay: shrunken log2 fold change of peptide-encoding DNA abundance (4.5 h post-induction vs induction); higher = less antimicrobial activity (less host growth inhibition)
Conditions: time post-induction: 4.5 h; library: site-saturation at positions 5, 18, 19, 20
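Note: peptides expressed intracellularly from a pBAD plasmid library in pooled LB shake-flask culture, induced with 0.3% L-arabinose, DNA abundance read by NGS, three biological replicates, DESeq2 with apeglm shrinkage.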

## RRIRLRPPRLPRPRPRPWIVPRP
  shrunken log2 fold change: -0.0907

## RRIRLRPPRLPRPRPRPWKIPRP
  shrunken log2 fold change: 0.095

## RRIRLRPPRLPRPRPRPWKSPRP
  shrunken log2 fold change: 0.0457

## RRIRLRPPRLPRPRPRPWLLPRP
  shrunken log2 fold change: -0.172

## RRIRLRPPRLPRPRPRPWMEPRP
  shrunken log2 fold change: 0.00489

## RRIRLRPPRLPRPRPRPWMHPRP
  shrunken log2 fold change: 0.0873

## RRIRLRPPRLPRPRPRPWNMPRP
  shrunken log2 fold change: -0.31

## RRIRLRPPRLPRPRPRPWQPPRP
  shrunken log2 fold change: -0.0454

## RRIRLRPPRLPRPRPRPWRFPRP
  shrunken log2 fold change: 0.271

## RRIRLRPPRLPRPRPRPWSKPRP
  shrunken log2 fold change: -0.547

## RRIRLRPPRLPRPRPRPWTIPRP
  shrunken log2 fold change: -0.0385

## RRIRLRPPRLPRPRPRPWTTPRP
  shrunken log2 fold change: -0.206

## RRIRLRPPRLPRPRPRPWVSPRP
  shrunken log2 fold change: 0.442

## RRIRLRPPRLPRPRPRPWWTPRP
  shrunken log2 fold change: -0.312

## RRIRLRPPRLPRPRPRPWWWPRP
  shrunken log2 fold change: -0.00192

## RRIRLRPPRLPRPRPRPWYSPRP
  shrunken log2 fold change: -0.103

## RRIRLRPPRLPRPRPRPWYVPRP
  shrunken log2 fold change: -0.125

## RRIRLRPPRLPRPRPRPYAAPRP
  shrunken log2 fold change: -0.36

## RRIRLRPPRLPRPRPRPYCWPRP
  shrunken log2 fold change: -0.37

## RRIRLRPPRLPRPRPRPYFLPRP
  shrunken log2 fold change: -0.798

## RRIRLRPPRLPRPRPRPYGNPRP
  shrunken log2 fold change: 0.0303

## RRIRLRPPRLPRPRPRPYGYPRP
  shrunken log2 fold change: -0.01

## RRIRLRPPRLPRPRPRPYHFPRP
  shrunken log2 fold change: -0.26

## RRIRLRPPRLPRPRPRPYHHPRP
  shrunken log2 fold change: -0.398

## RRIRLRPPRLPRPRPRPYHNPRP
  shrunken log2 fold change: -0.712

## RRIRLRPPRLPRPRPRPYHTPRP
  shrunken log2 fold change: -0.484

## RRIRLRPPRLPRPRPRPYICPRP
  shrunken log2 fold change: -0.0262

## RRIRLRPPRLPRPRPRPYIRPRP
  shrunken log2 fold change: -1.62

## RRIRLRPPRLPRPRPRPYITPRP
  shrunken log2 fold change: -0.716

## RRIRLRPPRLPRPRPRPYKPPRP
  shrunken log2 fold change: -0.789

## RRIRLRPPRLPRPRPRPYKWPRP
  shrunken log2 fold change: -0.0271

## RRIRLRPPRLPRPRPRPYLFPRP
  shrunken log2 fold change: -0.602

## RRIRLRPPRLPRPRPRPYLRPRP
  shrunken log2 fold change: -0.132

## RRIRLRPPRLPRPRPRPYMIPRP
  shrunken log2 fold change: -0.449

## RRIRLRPPRLPRPRPRPYNLPRP
  shrunken log2 fold change: -0.417

## RRIRLRPPRLPRPRPRPYQGPRP
  shrunken log2 fold change: -0.388

## RRIRLRPPRLPRPRPRPYQSPRP
  shrunken log2 fold change: -0.524

## RRIRLRPPRLPRPRPRPYRNPRP
  shrunken log2 fold change: -1.13

## RRIRLRPPRLPRPRPRPYRYPRP
  shrunken log2 fold change: -0.254

## RRIRLRPPRLPRPRPRPYSSPRP
  shrunken log2 fold change: -0.203

## RRIRLRPPRLPRPRPRPYTDPRP
  shrunken log2 fold change: -0.348

## RRIRLRPPRLPRPRPRPYTMPRP
  shrunken log2 fold change: -0.923

## RRIRMRPPRLPRPRPRPAFGPRP
  shrunken log2 fold change: 1.05

## RRIRMRPPRLPRPRPRPAGFPRP
  shrunken log2 fold change: 0.733

## RRIRMRPPRLPRPRPRPAHFPRP
  shrunken log2 fold change: 0.152

## RRIRMRPPRLPRPRPRPAHTPRP
  shrunken log2 fold change: 0.709

## RRIRMRPPRLPRPRPRPAIEPRP
  shrunken log2 fold change: 0.112

## RRIRMRPPRLPRPRPRPALGPRP
  shrunken log2 fold change: 0.625

## RRIRMRPPRLPRPRPRPAMDPRP
  shrunken log2 fold change: 1.27

## RRIRMRPPRLPRPRPRPAMYPRP
  shrunken log2 fold change: 2.95

## RRIRMRPPRLPRPRPRPAPCPRP
  shrunken log2 fold change: 0.835

## RRIRMRPPRLPRPRPRPAPWPRP
  shrunken log2 fold change: 0.807

## RRIRMRPPRLPRPRPRPARFPRP
  shrunken log2 fold change: 0.251

## RRIRMRPPRLPRPRPRPARPPRP
  shrunken log2 fold change: 1.09

## RRIRMRPPRLPRPRPRPASGPRP
  shrunken log2 fold change: 0.652

## RRIRMRPPRLPRPRPRPATNPRP
  shrunken log2 fold change: 0.499

## RRIRMRPPRLPRPRPRPATRPRP
  shrunken log2 fold change: 1.58

## RRIRMRPPRLPRPRPRPAWAPRP
  shrunken log2 fold change: 0.663

## RRIRMRPPRLPRPRPRPAWLPRP
  shrunken log2 fold change: 0.818

## RRIRMRPPRLPRPRPRPAYEPRP
  shrunken log2 fold change: 0.0216

## RRIRMRPPRLPRPRPRPAYNPRP
  shrunken log2 fold change: -0.236

## RRIRMRPPRLPRPRPRPCAGPRP
  shrunken log2 fold change: 0.213

## RRIRMRPPRLPRPRPRPCEAPRP
  shrunken log2 fold change: 0.807

## RRIRMRPPRLPRPRPRPCGGPRP
  shrunken log2 fold change: 1.19

## RRIRMRPPRLPRPRPRPCHIPRP
  shrunken log2 fold change: -0.0247

## RRIRMRPPRLPRPRPRPCIDPRP
  shrunken log2 fold change: 0.428

## RRIRMRPPRLPRPRPRPCINPRP
  shrunken log2 fold change: -0.0644

## RRIRMRPPRLPRPRPRPCMDPRP
  shrunken log2 fold change: 0.104

## RRIRMRPPRLPRPRPRPCNFPRP
  shrunken log2 fold change: -0.415

## RRIRMRPPRLPRPRPRPCNMPRP
  shrunken log2 fold change: -0.126

## RRIRMRPPRLPRPRPRPCNPPRP
  shrunken log2 fold change: -0.0764

## RRIRMRPPRLPRPRPRPCQDPRP
  shrunken log2 fold change: 0.227

## RRIRMRPPRLPRPRPRPCQMPRP
  shrunken log2 fold change: 0.00911

## RRIRMRPPRLPRPRPRPCQSPRP
  shrunken log2 fold change: 0.288

## RRIRMRPPRLPRPRPRPCRGPRP
  shrunken log2 fold change: 0.0309

## RRIRMRPPRLPRPRPRPCRNPRP
  shrunken log2 fold change: -0.326

## RRIRMRPPRLPRPRPRPCRPPRP
  shrunken log2 fold change: 0.00908

## RRIRMRPPRLPRPRPRPCSHPRP
  shrunken log2 fold change: -0.167

## RRIRMRPPRLPRPRPRPCSVPRP
  shrunken log2 fold change: -0.0402

## RRIRMRPPRLPRPRPRPCVRPRP
  shrunken log2 fold change: 0.0764

## RRIRMRPPRLPRPRPRPCWDPRP
  shrunken log2 fold change: 0.439

## RRIRMRPPRLPRPRPRPCWGPRP
  shrunken log2 fold change: -0.078

## RRIRMRPPRLPRPRPRPDAEPRP
  shrunken log2 fold change: 4.37

## RRIRMRPPRLPRPRPRPDEMPRP
  shrunken log2 fold change: 0.0155

## RRIRMRPPRLPRPRPRPDFCPRP
  shrunken log2 fold change: 0.0837

## RRIRMRPPRLPRPRPRPDFEPRP
  shrunken log2 fold change: 0.589

## RRIRMRPPRLPRPRPRPDFRPRP
  shrunken log2 fold change: 0.146

## RRIRMRPPRLPRPRPRPDGDPRP
  shrunken log2 fold change: 0.0211

## RRIRMRPPRLPRPRPRPDGHPRP
  shrunken log2 fold change: 0.0101

## RRIRMRPPRLPRPRPRPDGKPRP
  shrunken log2 fold change: 0.322

## RRIRMRPPRLPRPRPRPDHNPRP
  shrunken log2 fold change: -0.00429

## RRIRMRPPRLPRPRPRPDIYPRP
  shrunken log2 fold change: 0.0832

## RRIRMRPPRLPRPRPRPDLEPRP
  shrunken log2 fold change: 1.54

## RRIRMRPPRLPRPRPRPDNQPRP
  shrunken log2 fold change: 0.0198

## RRIRMRPPRLPRPRPRPDQRPRP
  shrunken log2 fold change: -0.105

## RRIRMRPPRLPRPRPRPDSIPRP
  shrunken log2 fold change: 0.0402

## RRIRMRPPRLPRPRPRPDTIPRP
  shrunken log2 fold change: 0.0143

## RRIRMRPPRLPRPRPRPDTMPRP
  shrunken log2 fold change: 0.28

## RRIRMRPPRLPRPRPRPDVGPRP
  shrunken log2 fold change: 0.0278

## RRIRMRPPRLPRPRPRPDWLPRP
  shrunken log2 fold change: -0.0671

## RRIRMRPPRLPRPRPRPDWNPRP
  shrunken log2 fold change: -0.0431

## RRIRMRPPRLPRPRPRPEACPRP
  shrunken log2 fold change: 3.9

## RRIRMRPPRLPRPRPRPEANPRP
  shrunken log2 fold change: 3.83

## RRIRMRPPRLPRPRPRPECMPRP
  shrunken log2 fold change: 2.53

## RRIRMRPPRLPRPRPRPECSPRP
  shrunken log2 fold change: 0.333

## RRIRMRPPRLPRPRPRPEETPRP
  shrunken log2 fold change: 0.0205

## RRIRMRPPRLPRPRPRPEHVPRP
  shrunken log2 fold change: 0.0396

## RRIRMRPPRLPRPRPRPEIFPRP
  shrunken log2 fold change: 1.27

## RRIRMRPPRLPRPRPRPEMMPRP
  shrunken log2 fold change: 0.316

## RRIRMRPPRLPRPRPRPEMTPRP
  shrunken log2 fold change: -0.00169

## RRIRMRPPRLPRPRPRPEPKPRP
  shrunken log2 fold change: 2.51

## RRIRMRPPRLPRPRPRPEQAPRP
  shrunken log2 fold change: 4.07

## RRIRMRPPRLPRPRPRPEQKPRP
  shrunken log2 fold change: -0.0148

## RRIRMRPPRLPRPRPRPERRPRP
  shrunken log2 fold change: 0.689

## RRIRMRPPRLPRPRPRPERTPRP
  shrunken log2 fold change: 0.00114

## RRIRMRPPRLPRPRPRPETSPRP
  shrunken log2 fold change: 0.163

## RRIRMRPPRLPRPRPRPEVLPRP
  shrunken log2 fold change: -0.0436

## RRIRMRPPRLPRPRPRPEVYPRP
  shrunken log2 fold change: -0.0346

## RRIRMRPPRLPRPRPRPEWFPRP
  shrunken log2 fold change: 0.0369

## RRIRMRPPRLPRPRPRPEWMPRP
  shrunken log2 fold change: 0.156

## RRIRMRPPRLPRPRPRPEYKPRP
  shrunken log2 fold change: 0.359

## RRIRMRPPRLPRPRPRPEYPPRP
  shrunken log2 fold change: 0.0399

## RRIRMRPPRLPRPRPRPEYWPRP
  shrunken log2 fold change: 0.339

## RRIRMRPPRLPRPRPRPFAGPRP
  shrunken log2 fold change: -0.0745

## RRIRMRPPRLPRPRPRPFAQPRP
  shrunken log2 fold change: 0.0306

## RRIRMRPPRLPRPRPRPFAVPRP
  shrunken log2 fold change: -0.109

## RRIRMRPPRLPRPRPRPFCHPRP
  shrunken log2 fold change: -0.0129

## RRIRMRPPRLPRPRPRPFDDPRP
  shrunken log2 fold change: 0.243

## RRIRMRPPRLPRPRPRPFELPRP
  shrunken log2 fold change: 0.0846

## RRIRMRPPRLPRPRPRPFEPPRP
  shrunken log2 fold change: 0.174

## RRIRMRPPRLPRPRPRPFEVPRP
  shrunken log2 fold change: -0.0748

## RRIRMRPPRLPRPRPRPFEWPRP
  shrunken log2 fold change: 0.174

## RRIRMRPPRLPRPRPRPFFCPRP
  shrunken log2 fold change: 0.0186

## RRIRMRPPRLPRPRPRPFFFPRP
  shrunken log2 fold change: 0.365

## RRIRMRPPRLPRPRPRPFFHPRP
  shrunken log2 fold change: -0.243

## RRIRMRPPRLPRPRPRPFGLPRP
  shrunken log2 fold change: -0.0107

## RRIRMRPPRLPRPRPRPFGYPRP
  shrunken log2 fold change: 0.067

## RRIRMRPPRLPRPRPRPFHQPRP
  shrunken log2 fold change: -0.0752

## RRIRMRPPRLPRPRPRPFIHPRP
  shrunken log2 fold change: -0.57

## RRIRMRPPRLPRPRPRPFIKPRP
  shrunken log2 fold change: -0.432

## RRIRMRPPRLPRPRPRPFKRPRP
  shrunken log2 fold change: 0.0293

## RRIRMRPPRLPRPRPRPFLNPRP
  shrunken log2 fold change: -0.247

## RRIRMRPPRLPRPRPRPFMAPRP
  shrunken log2 fold change: -0.236

## RRIRMRPPRLPRPRPRPFMGPRP
  shrunken log2 fold change: -0.0409

## RRIRMRPPRLPRPRPRPFMQPRP
  shrunken log2 fold change: -0.00899

## RRIRMRPPRLPRPRPRPFPAPRP
  shrunken log2 fold change: 0.426

## RRIRMRPPRLPRPRPRPFPFPRP
  shrunken log2 fold change: -0.356

## RRIRMRPPRLPRPRPRPFPQPRP
  shrunken log2 fold change: 0.103

## RRIRMRPPRLPRPRPRPFRFPRP
  shrunken log2 fold change: 0.089

## RRIRMRPPRLPRPRPRPFSRPRP
  shrunken log2 fold change: 0.0409
